According to paper PMC10157364 (Molecular Cancer Therapeutics, 2023):
Residue numbers refer to the chain shown, from its start. Numbers in names are those of the source. Values belong to the binder of their own block, whether it stands above or below them.

How the values were obtained:
[1] = molecular target: T1, mouse MIF treated with 0.2% Proclin300 (oxMIF surrogate) (Mus musculus, UniProt P34884, treated with 0.2% Proclin300 to transform MIF into an oxMIF surrogate); assay: ELISA; quantitative oxMIF ELISA: 15 nmol/L C0008, ON103 or ON203 as capture antibodies; human or mouse MIF in buffers with 0.2% Proclin300 as standard curves; EC50; settings: both partners purified
T1 construct: mouse MIF; also called mouse oxMIF in solution; soluble mouse oxMIF; source: E. coli SHuffle T7 Express lysY, purified (DEAE flow-through, SP cation exchange, SEC or desalting)

[2] = molecular target: T2, human MIF treated with 0.2% Proclin300 (oxMIF surrogate) (Homo sapiens, UniProt P14174, treated with 0.2% Proclin300 to transform MIF into an oxMIF surrogate); assay: SPR; Biacore 3000; antibodies amine-coupled to CM5 chips (about 2,500; 1,500; 1,000 RU); MIF at 42-666 nmol/L in HBS-EP with 0.2% Proclin300 (3 hours, room temperature), 30 uL/minute; Langmuir 1:1 model with mass transfer; mean of flow cells 2-4; settings: both partners purified
T2 construct: human MIF; Same protein as m4, after treatment with Proclin300 (3 hours at room temperature for SPR); also called human oxMIF in solution; soluble human oxMIF; source: E. coli SHuffle T7 Express lysY, purified (DEAE flow-through, SP cation exchange, SEC or desalting)
T2 sequence (P14174 whole entry): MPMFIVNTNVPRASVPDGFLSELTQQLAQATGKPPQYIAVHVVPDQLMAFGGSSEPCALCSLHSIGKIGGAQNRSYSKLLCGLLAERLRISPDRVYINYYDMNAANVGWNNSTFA

binding result [1]: binds
binding result [2]: binds
B1: C0008 (antibody, V domains shown)
VH: EVQLLESGGGLVQPGGSLRLSCAASGFTFSIYSMNWVRQAPGKGLEWVSSIGSSGGTTYYADSVKGRFTISRDNSKNTLYLQMNSLRAEDTAVYYCAGSQWLYGMDVWGQGTTVTVSS
VL: DIQMTQSPSSLSASVGDRVTITCRSSQRIMTYLNWYQQKPGKAPKLLIFVASHSQSGVPSRFRGSGSETDFTLTISGLQPEDSATYYCQQSFWTPLTFGGGTKVEIK
notes: human IgG1 wt constant region; variable region shared with BaxB01 (PDB 6FOE); full-length light chain identical to that of imalumab; Human IgG1; also called imalumab; Bax69; source: ExpiCHO, transient expression, purified (Protein A MabSelect PrismA, HiTrap SP HP)

binding result [1]: binds
B2: ON103 (antibody, V domains shown)
VH: B1 VH with L5Q, W101Y
VL: B1 VL with M30L, F49Y, A51G, P80S, W93F
notes: heavy-chain variable domain of C0083: the VH of m1 with point mutations; heavy-chain constant region of an IgG1/IgG2 hybrid isotype with two point mutations (S239D/I332E) in the CH2 domain; light chain of C0083: as the light chain of m1 with point mutations in VL; Variable domains of C0083 on an IgG1/IgG2 hybrid constant region; also called second-generation anti-oxMIF mAb; lead candidate; …

binding result [1]: binds
B3: ON203 (antibody, V domains shown)
VH: B1 VH with L5Q, W101Y
VL: B1 VL with F49Y, A51G, W93F
notes: heavy-chain variable domain of C0090: the VH of m1 with point mutations; heavy-chain constant region of an IgG1/IgG2 hybrid isotype with two point mutations (S239D/I332E) in the CH2 domain; light chain of C0090: as the light chain of m1 with point mutations in VL; Variable domains of C0090 on an IgG1/IgG2 hybrid constant region; also called second-generation anti-oxMIF mAb; lead candidate; …
